Six molecules from patent US20080274950A1 (BABRAHAM INSTITUTE, published 2008) can be followed below.

Positions count from the first letter of the chain named. Names may count otherwise.

Data set [1] addresses human N-cadherin naturally expressed on DX3 melanoma cells (human) (UniProt P19022). In words: adhesion of DX3 cells to coated monomeric N-cadherin-Fc, in oxidising buffer and in 10 mM DTT.
Data set [2] addresses T1, human N-cadherin naturally expressed on DX3 melanoma cells (human, UniProt P19022 160-906).
T1 construct: also called DX3 Cells; N-cadherin+ve DX3 melanoma cells
T1 sequence: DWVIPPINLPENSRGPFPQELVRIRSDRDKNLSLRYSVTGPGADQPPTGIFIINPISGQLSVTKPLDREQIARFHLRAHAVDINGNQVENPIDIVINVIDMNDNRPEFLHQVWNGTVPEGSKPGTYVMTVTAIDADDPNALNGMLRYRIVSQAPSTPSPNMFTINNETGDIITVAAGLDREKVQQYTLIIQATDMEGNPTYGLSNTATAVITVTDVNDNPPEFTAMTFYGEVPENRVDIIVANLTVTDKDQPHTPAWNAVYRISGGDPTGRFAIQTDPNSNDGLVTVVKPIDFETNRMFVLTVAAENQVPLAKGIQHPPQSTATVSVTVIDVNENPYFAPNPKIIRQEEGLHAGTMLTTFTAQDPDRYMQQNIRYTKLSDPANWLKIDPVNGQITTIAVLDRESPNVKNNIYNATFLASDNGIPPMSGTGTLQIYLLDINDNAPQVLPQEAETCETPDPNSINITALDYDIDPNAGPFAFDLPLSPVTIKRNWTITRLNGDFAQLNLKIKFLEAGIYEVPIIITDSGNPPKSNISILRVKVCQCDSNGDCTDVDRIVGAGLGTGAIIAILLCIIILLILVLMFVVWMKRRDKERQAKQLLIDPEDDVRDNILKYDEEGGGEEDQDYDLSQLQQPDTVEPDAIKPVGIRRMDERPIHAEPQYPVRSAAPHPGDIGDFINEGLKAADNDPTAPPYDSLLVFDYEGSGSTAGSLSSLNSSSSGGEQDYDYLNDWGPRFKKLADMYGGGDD
In words: adhesion of DX3 cells to coated monomeric N-cadherin-Fc, oxidising buffer. The protocol:
Monomeric or dimeric N-cadherin-Fc fusion protein in Cos cell supernatants was added as described for the ELISA assay. DX3 Cells, a human melanoma cell line which expresses N-cadherin, were dissociated with Cell Dissociation Solution (Sigma, code C5789), resuspended in HBSS with 2% FCS and assessed for adhesion to wild type or mutant N-cadherin-Fc as previously described (Corps et al., 2001). Microscopic examination established that the cells were present as a single cell suspension as they settled onto the plate. For assays conducted in reducing conditions, 10 mM DTT was present during the adhesion and washing steps. Determinations were conducted in triplicate and results are presented as mean +/−sem.

Data set [3] addresses T2, full length chicken N-cadherin with the N-terminus extended by two glycine residues (GG) expressed on K562 … (chicken, UniProt P10288 165-912).
T2 construct: whole, on cells; also called cells expressing the GG N-terminal extension mutant; K562 GG
T2 sequence: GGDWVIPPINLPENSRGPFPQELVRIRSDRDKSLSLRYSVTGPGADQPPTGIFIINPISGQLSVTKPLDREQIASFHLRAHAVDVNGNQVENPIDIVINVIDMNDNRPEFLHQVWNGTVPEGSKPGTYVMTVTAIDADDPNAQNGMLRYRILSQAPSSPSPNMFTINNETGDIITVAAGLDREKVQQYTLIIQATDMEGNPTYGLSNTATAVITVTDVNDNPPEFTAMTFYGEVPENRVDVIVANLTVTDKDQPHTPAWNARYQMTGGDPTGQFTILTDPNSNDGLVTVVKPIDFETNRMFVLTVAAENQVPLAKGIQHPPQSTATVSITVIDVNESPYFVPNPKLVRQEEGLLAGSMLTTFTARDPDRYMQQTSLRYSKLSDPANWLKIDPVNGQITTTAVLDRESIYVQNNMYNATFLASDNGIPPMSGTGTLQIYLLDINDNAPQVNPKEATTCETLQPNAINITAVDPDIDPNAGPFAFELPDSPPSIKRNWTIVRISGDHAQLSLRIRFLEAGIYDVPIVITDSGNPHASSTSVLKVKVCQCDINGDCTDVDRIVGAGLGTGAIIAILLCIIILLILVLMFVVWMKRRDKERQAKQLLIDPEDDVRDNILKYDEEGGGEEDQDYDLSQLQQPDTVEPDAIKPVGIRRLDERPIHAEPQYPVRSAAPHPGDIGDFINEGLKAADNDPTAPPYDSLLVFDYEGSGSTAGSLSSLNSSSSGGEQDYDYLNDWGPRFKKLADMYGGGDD
In words: adhesion of K562 transfectants to coated N-cadherin Fc. The protocol: Adhesion tests were conducted substantially as described in Example 1. Briefly, K562 Cells or L cells transfected with wild type or mutant N-cadherin were allowed to settle for 45 minutes at 37° C. onto N-cadherin Fc fusion proteins coated at 1 μg/ml to a 96 well plate. Non-adherent cells were then washed off and residual adherent cells were quantitated by measuring acid phosphatase activity. Assays were conducted in quadruplicate and results are expressed as % cells adhering +/−SEM.

Data set [4] deals with the molecule itself. In words: bead aggregation assay, 1.25 mM CaCl2. The protocol:
Dynabeads (Dynal Biotech) coupled to Protein A were coated with N-cadherin Fc at 1 μg/ml in calcium and magnesium-free HBSS containing 0.1% Tween 20, 1% FCS and 4 mM EDTA. Eppendorf tubes containing beads and fusion protein were rotated slowly for 1 hour at room temperature to allow binding to take place. The beads were then washed in the above assay buffer lacking EDTA and then resuspended in the same buffer supplemented with 1.25 mM CaCl₂. Beads were allowed to aggregate in a volume of 100 μl for 2 hours at 37° C. by slow rotation, in an eppendorf tube, at approximately 20 rpm. Aggregation was then assessed by light microscopy.
In the experiments described so far in this example, disruption of the salt bridge prevented intramolecular docking of Trp 2 in one or both components of the dimer. In an alternative strategy to prevent intramolecular docking, we removed Trp2 by introducing the mutation W2G or blocked the hydrophobic acceptor pocket with an isoleucine side chain projecting into the cavity using the mutation A801. N-cadherin Fc fusion proteins with these mutations were then tested against our panel of K562 transfectants (FIG. 17a). In keeping with the explanation given in FIG. 5, the W2G mutant acted as a strand acceptor and therefore adhered strongly to the E89A mutant whereas the A80I mutant was a strand donor and adhered to the GG extension mutant. […] In contrast, beads coated with the W2G or A801 mutants and tested separately clustered in twos and threes, whereas beads coated with the negative control mutant, D134A, were entirely monodisperse. To test whether all five extracellular domains of N-cadherin (EC1-EC5) are necessary for the strong adhesive interaction between the complementary mutants, we compared the adhesive activity of the W2G mutant prepared as a full length (EC1-EC5) Fc fusion protein with that of the same mutant prepared as a truncated construct containing only cadherin domains EC1 and EC2.

Data set [5] concerns the molecule itself. In words: disulphide-bonded cis-dimers on the cell surface; non-reducing SDS-PAGE and immunoblot. A general note: Immunoblotting shows a protein as a band on a membrane.

With “wild type monomeric chicken N-cadherin-Fc (mutations F405A and Y407A in the CH3 domain of Fc) (from UniProt P10288 165-729) (Fc fusion)”, in data set [1], the % cells adhering was 65%.

B1: monomeric chicken N-cadherin-Fc with the mutation D27C (Fc fusion, UniProt P10288 165-728, looked up)
chain: DWVIPPINLPENSRGPFPQELVRIRSCRDKSLSLRYSVTGPGADQPPTGIFIINPISGQLSVTKPLDREQIASFHLRAHAVDVNGNQVENPIDIVINVIDMNDNRPEFLHQVWNGTVPEGSKPGTYVMTVTAIDADDPNAQNGMLRYRILSQAPSSPSPNMFTINNETGDIITVAAGLDREKVQQYTLIIQATDMEGNPTYGLSNTATAVITVTDVNDNPPEFTAMTFYGEVPENRVDVIVANLTVTDKDQPHTPAWNARYQMTGGDPTGQFTILTDPNSNDGLVTVVKPIDFETNRMFVLTVAAENQVPLAKGIQHPPQSTATVSITVIDVNESPYFVPNPKLVRQEEGLLAGSMLTTFTARDPDRYMQQTSLRYSKLSDPANWLKIDPVNGQITTTAVLDRESIYVQNNMYNATFLASDNGIPPMSGTGTLQIYLLDINDNAPQVNPKEATTCETLQPNAINITAVDPDIDPNAGPFAFELPDSPPSIKRNWTIVRISGDHAQLSLRIRFLEAGIYDVPIVITDSGNPHASSTSVLKVKVCQCDINGDCTDVDRIVGAGLGT
notes: extracellular domain; not shown: hinge region, CH2 and CH3 domains of human IgG1 heavy chain (vector pIgSig)
As for B1, the binding result in data set [2] is on record as “binds”.

B2: chicken N-cadherin Fc fusion protein with the pocket-blocking mutation A80I (Fc fusion, UniProt P10288 165-728, looked up)
chain: B1 chain with C27D, A80I
notes: extracellular domain; also called A80I mutant; not shown: hinge region, CH2 and CH3 domains of human IgG1 heavy chain (vector pIgSig)
As for B2, the binding result in data set [3] and in data set [4] was “binds” throughout.

B3: chicken N-cadherin Fc fusion protein with the mutations E89A and D134A (Fc fusion, UniProt P10288 165-728, looked up)
chain: B1 chain with C27D, E89A, D134A
notes: extracellular domain; also called D134A in combination with E89A; not shown: hinge region, CH2 and CH3 domains of human IgG1 heavy chain (vector pIgSig)
Take B3: the binding result in data set [3] is on record as “no binding (tested: Fc fusion protein coated at 1 µg/ml)”.

B4: full length chicken N-cadherin with the mutation D1C expressed on K562 cells (receptor, UniProt P10288 165-912, looked up)
chain: CWVIPPINLPENSRGPFPQELVRIRSDRDKSLSLRYSVTGPGADQPPTGIFIINPISGQLSVTKPLDREQIASFHLRAHAVDVNGNQVENPIDIVINVIDMNDNRPEFLHQVWNGTVPEGSKPGTYVMTVTAIDADDPNAQNGMLRYRILSQAPSSPSPNMFTINNETGDIITVAAGLDREKVQQYTLIIQATDMEGNPTYGLSNTATAVITVTDVNDNPPEFTAMTFYGEVPENRVDVIVANLTVTDKDQPHTPAWNARYQMTGGDPTGQFTILTDPNSNDGLVTVVKPIDFETNRMFVLTVAAENQVPLAKGIQHPPQSTATVSITVIDVNESPYFVPNPKLVRQEEGLLAGSMLTTFTARDPDRYMQQTSLRYSKLSDPANWLKIDPVNGQITTTAVLDRESIYVQNNMYNATFLASDNGIPPMSGTGTLQIYLLDINDNAPQVNPKEATTCETLQPNAINITAVDPDIDPNAGPFAFELPDSPPSIKRNWTIVRISGDHAQLSLRIRFLEAGIYDVPIVITDSGNPHASSTSVLKVKVCQCDINGDCTDVDRIVGAGLGTGAIIAILLCIIILLILVLMFVVWMKRRDKERQAKQLLIDPEDDVRDNILKYDEEGGGEEDQDYDLSQLQQPDTVEPDAIKPVGIRRLDERPIHAEPQYPVRSAAPHPGDIGDFINEGLKAADNDPTAPPYDSLLVFDYEGSGSTAGSLSSLNSSSSGGEQDYDYLNDWGPRFKKLADMYGGGDD
notes: whole, on cells; also called D1C cells; K562 D1C
In the case of B4, the binding result in data set [5] is “binds”.

B5: full length chicken N-cadherin with the mutation D27C expressed on K562 cells (receptor, UniProt P10288 165-912, looked up)
chain: B4 chain with C1D, D27C
notes: whole, on cells; also called K562 D27C
Consider B5, for which the binding result in data set [5] is on record as “binds”.
